# Results: patent US11523990B2, “Non-covalent, self-organzing hydrogel matrix for biotechnological applications” (DENOVOMATRIX GMBH, priority 2012, dated 2022)
# Square brackets hold non-standard residues; d marks the D form. Ends that are not written are not given here.
# How the values were obtained:
# Assay type in all cases: physicochemical
# [1] = Stability of formed hydrogels against different solvents; settings: 24° C., at least three days
# Protocol: In order to test the strength of the interaction between the peptide motif and the 14-kDa-heparin the formed hydrogels were tested with regard to different solvents. […] For this the peptide-starPEG-conjugates were mixed with 14 kDa-heparin in 50 μl in physiological phosphate buffer solution (1×PBS) to a final concentration of respectively 5 mM. Each solvent, i.e., physiological phosphate buffer solution (1×PBS), Milli-0-water, 1 M hydrochloric acid (HCl) 1 M sodium hydroxide solution (NaOH), saturated sodium chloride solution (NaCl), dimethyl sulfoxide (DMSO), ethanol and cell culture medium with 2% fetal bovine serum (FBS) were respectively added as 200 μl supernatant to the hydrogel. The hydrogel was incubated at a room temperature of 24° C. and the supernatants where exchanged every day for at least three days. All experiments were performed three times. Under none of the tested conditions the KA7-hydrogel could be destroyed. […] 2,2,2-trifuourethanlol (TFE) is known to destroy any type of secondary structures.
# [2] = High-throughput centrifuge analysis of mechanical properties of the hydrogels (surface deformation, metal bead penetration); settings: for Deformation speed: 50 μl 1×PBS, 45° centrifuge; for Penetration speed: 275 μm metal beads
# Protocol: (§1) ATIII is a heparin-binding peptide known from the literature. All peptides are connected to a four-armed, maleimide functionalized 10-kDa-polyethylene glycol (starPEG). The hydrogel formation was tested in a 50 μI mixture, which contains 5 mM 14-kDa-heparin and 5 mM (2.5 mM) peptide-starPEG conjugate in phosphate buffer solution (1×PBS, pH 7.4). The deformation and penetration speed was analyzed through centrifuging the hydrogel in a 45° table centrifuge with 275 μm metal beads added to the surface. The deformation of the surface and the penetration of the metal beads were monitored in dependence on the applied force.
# A comparative high-throughput analysis was performed regarding the mechanical properties of the hydrogels. In order to provide a fast high-throughput method for comparing small amounts of hydrogel, a tabletop centrifuge (5424R, Eppendorf, Hamburg, Germany) was used. For this purpose, 50 μl of the hydrogel were formed by mixing the peptide-starPEG-conjugates and 14-kDa-heparin in phosphate buffer (1×PBS, pH 7.4) to a final concentration of 5 mM (once 2.5 mM for KA7-starPEG). The mixture was incubated in 0.2 ml reaction vessels overnight. The deformation of the hydrogel surface was determined in reference to the 45° centrifuge rotor and the penetration of 275 μm metal beads in dependence on the force that has to be produced by the centrifuge. All experiments were repeated three times.
# Hereby FIGS. 5A and B show a deformation of the surface of the 50 μl hydrogel in a 0.2 ml reaction tube, more specifically FIG. 5A below the speed required for deforming the surface, and FIG. 5B at the speed required for deforming the surface. FIG. 5C is a schematic representation of the penetration of a small spheres through 50 μl hydrogel in a 0.2 ml reaction tube depending on the force exerted by the 45° centrifuge.
# The hydrogels were formed by mixing peptide-starPEG-conjugate and 14-kDa-heparin at 5 mM final concentration in 50 μl phosphate buffer (1×PBS). The analysis was performed by centrifuging the hydrogels in a 45° tabletop centrifuge with 275 μm metal beads on the gel surface. The deformation of the surface and the penetration of the spheres were recorded in dependence on the exerted force.
# [3] = Hydrogel formation in different solvents; settings: 5 mM conjugate + 5 mM 14-kDa-heparin
# Protocol: Three respective different cases were tested in the hydrogel-formation stability test. […] The hydrogels were formed by mixing the final concentrations of respectively 5 mM peptide-starPEG-conjugate and 5 mM 14-kDa-heparin in 50 μl physiological phosphate buffer solution (1×PBS), Milli-Q-water or cell culture medium with 2% fetal bovine serum (FBS). The stability of the hydrogels was tested with the same solvent in which it was formed in 200 μl supernatant. The hydrogels were incubated at room temperature (24° C.), the supernatants were changed every day for at least three days in a row and the result after at least 3 days analyzed.
# [4] = Rheological gelation measurement (MCR 302, cone-plate); settings: for Loss Factor at te / Storage modulus G′ at te: 1 mM KA7-RGDSP-starPEG + 1 mM 5DexS or 0.01 mM 500DexS; for Storage moduli G′: 2 mM KA7-RGDSP-starPEG + 2 mM oligosaccharide, after 110 min of gelation
# Protocol: The oligosaccharides were purchased as given in Table 9 and weighed out as required prior each experiment. Oligosaccharides and peptide-starPEG conjugates were dissolved in PBS (oligosaccharides at five-fold and peptide-starPEG at 1.25-fold of the final concentration) and mixed thoroughly. The samples were applied directly onto the measuring system. First, 80% of the final sample volume was provided by the peptide-starPEG solution. Second, the oligosaccharide solution was added to complete to 100% of sample volume.
# The Modular Compact Rheometer MCR 302 (Anton Paar) was used with temperature control unit (P-PTD200+H-PTD200, Anton Paar) and cone-plate measuring system (CP20-0.3 and INSET I-PP20/SS, Anton Paar) for assessment of the mechanical properties of the hydrogels of different composition. The gelation measurement was performed at 20° C. with 1% oscillatory shear strain and a frequency of 1 Hz every 5 min for 2 hours. The data was analyzed with Excel (Excel 2013, Microsoft).
# The following experiments studied the mechanical properties of hydrogels formed of different components. FIG. 14 summarizes the chosen parameters and measurement values. The storage modulus G′ and loss modulus G″ are calculated from the complex modulus G, which is recorded by the oscillating rheometer. The loss factor tan δ is further calculated by G″ divided by G′.
# [5] = Hydrogel formation of peptide-starPEG conjugates with 14-kDa-heparin; settings: peptide coupled to 10-kDa starPEG; 5 mM 14-kDa-heparin + 5 mM (2.5 mM) conjugate, 50 μl 1×PBS pH 7.4
# Protocol: Following is the description of the production of the hydrogel networks. Hereby 14-kDa-heparin (25 mM, 2.5 mM) and peptide-starPEG conjugates (6.25 mM, 3.125 mM) were dissolved in physiologic phosphate buffer solution (1×PBS) water or cell culture medium with 2% fetal bovine serum (FBS). These solutions were dissolved in a ratio of 1:4 heparin:peptide-starPEG-conjugate by obtaining […] or 5 mM 14-kDa-heparin and 2.5 mM or 5 mM peptide-starPEG. The ligand/mol ratio was 2:1, 1:1 and 1:5 relative to the mol ratio of 14-kDa-heparin and the peptide-starPEG-conjugate. The mixtures were incubated within a time frame of one hour to overnight at […]. The gelation time spanned from present up to several hours depending on the applied peptide motif.
# as §1
# In addition to the peptide motif, a tryptophan was labeled with a one letter code W, for UV detection and purification and a cysteine, marked with the one letter code C, bound to the N-terminal end of the peptide with two glycine. By applying the Michael-addition-chemistry, the cysteine was coupled to the maleimide-functionalized 10-kDa-starPEG. […] This is the largest library of peptide-polymer-conjugates, for which each of the oligosaccharide dependent hydrogel formation was analyzed. To analyze the formation of hydrogels, all peptide-starPEG-conjugates were each mixed with 14-kDa-heparin in 50 μI phosphate buffer (1×PBS) to a final concentration of 5 mM. […]
# [6] = supernatant 1xPBS, 5 mM conjugate + 5 mM heparin gel
# [7] = supernatant Cell culture medium with 2% FBS
# [8] = supernatant Saturated NaCl solution
# [9] = 5 mM peptide-starPEG + 5 mM 14-kDa-heparin
# [10] = Cell culture medium with 2% FBS
# [11] = PBS, 50 μl, result after at least 3 days
# [12] = te 120 min, sulfate sodium salt
# [13] = 1 mM KA7-RGDSP-starPEG(40 kDa) + 1 mM oligosaccharide, te 120 min
# [14] = 2 mM KA7-RGDSP-starPEG(10 kDa) + 2 mM oligosaccharide, te 110 min (5DexS), 120 min (Hep)
# [15] = 2 mM KA7-starPEG + 2 mM 5DexS or 0.02 mM 500DexS, te 120 min, sulfate sodium salt
# [16] = 2 mM KA7-starPEG(10 kDa) + 2 mM oligosaccharide, te 120 min
# [17] = 2.5 mM peptide-starPEG + 5 mM 14-kDa-heparin
# [18] = 1.5 mM KA7-starPEG(10 kD) + 3 mM cyclodextrin sulfate, te 120 min
substance,measurement,setting,value
CWGGRARARARARARARA [RA7],Stability of hydrogel against supernatant,[1]; supernatant 1M HCl,Stable; hydrogel was
same,Stability of hydrogel against supernatant,[1]; supernatant 1M NaOH,Stable
same,Stability of hydrogel against supernatant,[1]; [6],Stable; the surface
same,Stability of hydrogel against supernatant,[1]; [7],Stable
same,Stability of hydrogel against supernatant,[1]; supernatant DMSO,Stable
same,Stability of hydrogel against supernatant,[1]; supernatant Ethanol,Stable
same,Stability of hydrogel against supernatant,[1]; [8],Not stable; hydrogel
same,Stability of hydrogel against supernatant,[1]; supernatant Water,Stable
same,Deformation speed,[2]; [9],1069 +/- 579 m/s^2
same,Penetration speed,[2]; [9],1952 +/- 491 m/s^2
same,Hydrogel formation in solvent,[3]; [10],formed
same,Hydrogel formation in solvent,[3]; [11],formed
same,Hydrogel formation in solvent,[3]; water (Milli-Q),formed
Dextran sulfate sodium salt [Peptide 5DexS],Loss Factor at te,[4]; [12],0.00681
same,Storage modulus G′ at te,[4]; [12],"2,295 Pa"
same,Loss Factor at time point,[4]; [13],0.0105
same,Storage moduli G′,[4],14.5 kPa
same,Loss Factor at time point,[4]; [14],0.00611
same,Storage modulus G′ at time point,[4]; [14],"14,486 Pa"
same,Loss Factor at time point,[4]; [15],0.132
same,Storage modulus G′ at time point,[4]; [15],"76,977 Pa"
same,Loss Factor at time point,[4]; [16],0.132
same,Storage modulus G′ at time point,[4]; [16],"76,977 Pa"
Dextran sulfate sodium salt [Peptide 500DexS],Loss Factor at te,[4]; [12],0.0307
same,Storage modulus G′ at te,[4]; [12],"1,658 Pa"
same,Loss Factor at time point,[4]; [15],0.0887
same,Storage modulus G′ at time point,[4]; [15],"34,694 Pa"
CWGGKAKAKAKaKAKAKA (CWGGKAKAKAK[dA]KAKAKA) [KA7-1a],Hydrogel formation with heparin,[5],doesn't form a hydrogel with heparin
CWGGKAKAKAKAKAKAKA [KA7],Stability of hydrogel against supernatant,[1]; supernatant 1M HCl,Stable
same,Stability of hydrogel against supernatant,[1]; supernatant 1M NaOH,Stable
same,Stability of hydrogel against supernatant,[1]; [6],Stable
same,Stability of hydrogel against supernatant,[1]; [7],Stable
same,Stability of hydrogel against supernatant,[1]; supernatant DMSO,Stable
same,Stability of hydrogel against supernatant,[1]; supernatant Ethanol,Stable
same,Stability of hydrogel against supernatant,[1]; [8],Stable
same,Stability of hydrogel against supernatant,[1]; supernatant Water,Stable
same,Deformation speed,[2]; [17],43998 +/- 3139 m/s^2
same,Penetration speed,[2]; [17],72780 +/- 6926 m/s^2
same,Deformation speed,[2]; [9],>148317 m/s^2
same,Penetration speed,[2]; [9],138919 +/- 16275 m/s^2
same,Hydrogel formation in solvent,[3]; [10],formed
same,Hydrogel formation in solvent,[3]; [11],formed
same,Hydrogel formation in solvent,[3]; water (Milli-Q),formed
Heparin [reference compound],Loss Factor at time point,[4]; [13],0.0486
same,Storage modulus G′ at time point,[4]; [13],811 Pa
same,Storage moduli G′,[4],12.1 kPa
same,Loss Factor at time point,[4]; [14],0.0193
same,Storage modulus G′ at time point,[4]; [14],"12,104 Pa"
same,Loss Factor at time point,[4]; [16],0.0131
same,Storage modulus G′ at time point,[4]; [16],"1,849 Pa"
same,Factor by which storage modulus G′ is lower than for 5DexS gels,"[4]; 2 mM KA7-starPEG, after 120 min of gelation",40
"CWGGKAFAKLAARLYRKA (Human) [ATIII, reference compound]",Deformation speed,[2]; [9],gel shrank
CWGGKaKaKaKaKaKaKa (CWGGK[dA]K[dA]K[dA]K[dA]K[dA]K[dA]K[dA]) [KdA7],Hydrogel formation with heparin,[5],neither formation of a hydrogel
CWGGRARARARARA [RA5],Deformation speed,[2]; [9],>687 m/s^2
same,Penetration speed,[2]; [9],>687 m/s^2
β-cyclodextrin sulfated sodium salt,Loss Factor at time point,[4]; [18],0.062
same,Storage modulus G′ at time point,[4]; [18],"33,169 Pa"
CWGGkAkAkAkAkAkAkA (CWGG[dK]A[dK]A[dK]A[dK]A[dK]A[dK]A[dK]A) [dKA7],Hydrogel formation with heparin,[5],neither formation of a hydrogel
γ-cyclodextrin sulfated sodium salt,Loss Factor at time point,[4]; [18],0.0355
same,Storage modulus G′ at time point,[4]; [18],"30,749 Pa"
α-cyclodextrin sulfated sodium salt,Loss Factor at time point,[4]; [18],0.0641
same,Storage modulus G′ at time point,[4]; [18],"30,561 Pa"
